# Assay results taken from patent US7271143B1, “Peptides for regulation of urokinase (uPA) and tissue type (tPA) plasminogen activator and method of optimizing therapeutic efficacy” (Thrombotech Ltd., priority 2001, dated 2007).
# Read-outs that look alike come from different tables or passages of the source. Ends that are not written are not given here.
# Assays:
# tPA [1] = target: T1, tPA (Homo sapiens, UniProt P00750); assay: Effect on vasoactivity of tPA (PE-induced contraction of aorta rings); assay type: cell-based
# T1 sequence (P00750 36-562): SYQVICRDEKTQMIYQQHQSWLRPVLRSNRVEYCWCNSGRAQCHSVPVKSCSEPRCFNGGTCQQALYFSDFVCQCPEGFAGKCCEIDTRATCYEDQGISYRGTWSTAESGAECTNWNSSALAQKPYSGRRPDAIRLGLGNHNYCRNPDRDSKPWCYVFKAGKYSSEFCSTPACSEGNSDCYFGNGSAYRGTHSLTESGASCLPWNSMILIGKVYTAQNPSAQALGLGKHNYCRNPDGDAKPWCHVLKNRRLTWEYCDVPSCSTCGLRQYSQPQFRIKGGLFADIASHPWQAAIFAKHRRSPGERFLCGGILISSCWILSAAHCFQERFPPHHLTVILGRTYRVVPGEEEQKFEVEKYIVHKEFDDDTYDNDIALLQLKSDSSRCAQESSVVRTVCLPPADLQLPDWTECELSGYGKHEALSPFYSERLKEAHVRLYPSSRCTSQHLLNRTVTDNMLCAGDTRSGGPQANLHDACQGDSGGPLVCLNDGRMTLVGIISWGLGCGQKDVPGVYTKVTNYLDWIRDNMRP
# Procedure: (§1) FIG. 2 is a graphical representation of the results obtained in experiments to study the effect of PAI-1 on the vasoactivity of tPA. The EC50 of PE was determined in the absence (Control) or presence of 1 nM tPA, 20 nM tPA, 1 nM tPA and an equimolar concentration of PAI-1, 20 nM tPA and an equimolar concentration of PAI-1, 1 nM tPA and 2 μM of SEQ ID NO:1 or 20 nM tPA and 2 μM of SEQ ID NO:1.
# as §1, with “FIG. 3 is a” for “FIG. 2 is a”, “effect of RAP and anti-LRP antibodies on the” for “effect of PAI-1 on the”
# (§2) FIG. 6 is a bar diagram describing the results of studies done on the effect of PAI-1 derived peptide on tPA vasoactivity. The constriction of aorta rings was induced by increasing the concentrations of phenylepbrine in the absence or presence of 1 nM tPA, 1 nM tPA and 1 OM SEQ ID NO:1, 10 mM tPA or 10 nM tPA and 1 OM of SEQ ID NO:1.
# (§3) The effect of TNK-tPA on PE-induced contraction was compared with the effect of tPA, in the isolated aorta rings. The experimental procedure followed has been described earlier (Haj-Yehia A, Nassar T, Sachais B, Kuo A, Bdeir K., Al-Mehdi A-B, Mazar A, Cines D, Higazi A A-R. Urokinase-derived peptides regulate vascular smooth muscle contraction in vitro and in vivo. FASEB J 2000; 14:1411–1422.
# In an attempt to understand the basis for the modification in the vasoactivity of TNK-tPA, the role of the PAI-1 docking site in the process was examined.
# (§4) The effect of revertase and TNK-tPA on the PE induced vasocontraction was studied in presence or absence of the LRP antagonist (RAP) or anti LRP antibodies.
# as §2, with “phenylephrine” for “phenylepbrine”, “OM,” for “OM SEQ ID NO:1,”, “nM” for “mM”, “OM.” for “OM of SEQ ID NO:1.”
# isolated rat aorta rings = assay: PE-induced contraction of isolated rat aorta rings; assay type: cell-based
# Procedure: FIG. 1A is a diagram describing the results of experiments on the effect of tPA on PE-induced contraction of isolated rat aorta rings. Contraction of aortic rings was induced by increasing the concentrations of phenylephrine (PE), in the absence of tPA (full triangles) or in the presence of 1 nM (filled squares) or 20 nM tPA (empty squares).
# FIG. 1B describes the results of experiments in which the contraction of aortic rings was induced in the absence of TNK-tPA (filled triangles), in the presence of 1 nM tPA (filled squares) or 20 nM tPA (empty squares).
# FIG. 4 is a graph describing the effect of tPA on phenylepbrine-induced contraction of isolated rat aorta rings in vitro. The contraction of the aorta rings was induced by varying concentrations of phenylephrine in the absence of tPA (filled triangles), in the presence of 1 nM of TA (filled squares) or in the presence of 10 nM tPA (empty squares). The experiments were performed according to procedures described earlier by Haj-Yehia A et al., FASEB J, 2000, 14:1411–1422.
# as §3
# FIG. 4 describes a graph describing the effect of TA on phenylephrine-induced contraction of isolated rat aorta rings in vitro. The contraction of the aorta rings was induced by varying concentrations of phenylephrine in the absence of tPA (filled triangles), in the presence of 1 nM of tPA (filled squares) or in the presence of 10 nM TA (empty squares). The experiments were performed according to procedures described earlier by Haj-Yehia A et al., FASEB J, 2000, 14:1411–1422.
# scuPA = scuPA (Homo sapiens, UniProt P00749); assay: Effect on fibrinolytic activity of scuPA (blood clot lysis); assay type: biochemical
# tPA [2] = target: T1, tPA; assay: tPA mediated clot lysis / chromogenic assay of tPA activity; assay type: biochemical
# Procedure: (§5) FIG. 7 is a bar diagram describing the results of experiments on the effect of PAI-1 derived peptide on tPA mediated clot lysis. The capacity of TA to induce clot lysis was determined in the presence and absence of 1 OM of SEQ ID NO:1. In these experiments, blood from volunteers was allowed to clot at room temperature for one hour, the blood clot was separated from the plasma, placed on absorbing paper to remove all the serum and cut into several pieces. The pieces were weighed, and placed in PBS buffer alone or containing 100 nM tPA, with or without 1 OM of SEQ ID NO:1. After incubation for 3 hours at room temperature, the thrombi are separated from the medium, dried and weighed.
# as §5, with “of tPA” for “of TA”, “of 10 M.” for “of 1 OM of SEQ ID NO:1.”, “without 10M.” for “without 1 OM of SEQ ID NO:1.”, “weighed. […]” for “weighed.”
# TNK-tPA = TNK-tPA (Homo sapiens, UniProt P00750, H332A/K331A/N152Q/R333A/R334A/T138N); assay: Effect on vasoactivity of TNK-tPA (PE-induced contraction of aorta rings); assay type: cell-based
# Sequence of TNK-tPA (P00750 36-562 T138N/N152Q/K331A/H332A/R333A/R334A): as the sequence (P00750 36-562) above, with T103N, N117Q, K296A, H297A, R298A, R299A counted along it
# Procedure: as §1
# The effect of TNK-tPA on PE-induced contraction was compared with the effect of tPA, in the isolated aorta rings.
# PAI-1 interacts with tPA through independent sites; the catalytic site and a docking site, present in the amino acids […] to 299. The PAI-1 docking site is mutated in TNK-tPA. […] Madison E L, Goldsmith W. Gething M-J, H., Sambrook J F, Gerard R D. Restoration of serine protease-inhibitor interaction by protein engineering. Journal of Biological Chemistry. 1990; 265:21423–21426.
# as §4
# uPA [3] = target: T2, uPA (Homo sapiens, UniProt P00749); assay: Effect on vasoactivity of uPA (PE-induced contraction of aorta rings); assay type: cell-based
# Procedure: FIG. 5 is a bar diagram describing the results of experiments on the vasoactivity of uPA and tPA in the presence or absence of PAI-1, for example, the effect of 2 nM uPA or 1 nM tPA on phenylephrine induced vasoconstriction was determined in the presence or absence of equimolar concentrations of PAI-1.
# FIG. 5 describes a bar diagram describing the results of experiments on the vasoactivity of uPA and tPA in the presence of absence of PAI-1, for example, the effect of 2 nM uPA or 1 nM tPA on phenylephrine induced vasoconstriction was determined in the presence or absence of equimolar concentrations of PAI-1.
# as §2, with “phenylephrine” for “phenylepbrine”, “OM,” for “OM SEQ ID NO:1,”, “nM” for “mM”, “OM.” for “OM of SEQ ID NO:1.”
# uPA [4] = target: T2, uPA; assay: Effect on fibrinolytic activity of uPA; assay type: biochemical
# [5] = in vivo; cited from earlier work
# [6] = in vivo; cited from earlier work; remark: listed apart in the source
molecule,measurement,setting,value
"EEIIMD [SEQ ID NO:1, six amino acid peptide corresponding to residues 350 to 355 of PAI-1]",effect on vasoactive effects of rtPA,tPA [1]; 2 μM peptide,abolished
same,effect on enhancing effect of tPA on phenylephrine-induced vasoconstriction in aorta ring cultures,tPA [1]; concentration not given,abolishes
same,effect on enhancing effect of tPA on phenylephrine induced vasoconstriction,tPA [1]; peptide at 10M (so in the source),abolished
same,effect alone on contraction of aorta rings,isolated rat aorta rings; without tPA or uPA,Neither PAI-1 nor alone had any effect
same,effect on fibrinolytic activity of scuPA,scuPA,no effect
same,effect on fibrinolytic activity of scuPA,scuPA; listed as 6 amino acid peptide,stimulates synergistically
same,effect on fibrinolytic activity of tPA,tPA [2],no effect
same,"effect on catalytic activity of tPA (clot lysis, FIG. 7)","tPA [2]; 100 nM tPA, peptide 10M (so in the source), 3 hours, room temperature",no significant effect
same,effect on vasoactive effect of TNK-tPA,TNK-tPA; 2 μM peptide,unaffected
same,effect on vasoactive effect of TNK-tPA,TNK-tPA; 10 μM peptide,abolished
same,effect on vasoactive effect of TNK-tPA,TNK-tPA; 5 molar concentration of the peptide,abolished
same,effect on vasoactive effect of TNK-tPA,TNK-tPA; equimolar concentration of peptide,unaffected
same,effect on enhancing effect of uPA on phenylephrine-induced vasoconstriction,uPA [3]; concentration not given,abrogates
same,effect on enhancing effect of uPA on phenylephrine induced vasoconstriction,"uPA [3]; same as on tPA, peptide at 10M (so in the source)",the same effect
same,effect on fibrinolytic activity of uPA,uPA [4],no effect
"rRAP: LRP antagonist, recombinant receptor associated protein [reference compound]",effect on vasoactive effect of tPA,tPA [1],totally abolished
same,effect on vasoactive effect of TNK-tPA,TNK-tPA; anti-LRP antibodies or LRP antagonist,totally abolished
"CNC[C@H](O)c1cccc(O)c1 [PE, phenylephrine, reference compound]",EC50,"isolated rat aorta rings; Rattus norvegicus, control, before addition of plasminogen activator, read-out: EC50 of PE-induced constriction",34 nM
"tPA: tissue-type plasminogen activator, single-chain serine protease; rtPA is the recombinant form","affinity of first (fast) epitope, inhibits PE induced vasoconstriction",isolated rat aorta rings,around 1 nM
same,"affinity of second epitope, stimulates PE-induced vasoconstriction",isolated rat aorta rings,around 20 nM
same,effect on PE-induced vasoconstriction,isolated rat aorta rings; 1 nM,inhibited
same,effect on PE-induced vasoconstriction,"isolated rat aorta rings; 1 nM, listed as TA",inhibits
same,effect on PE-induced vasoconstriction,isolated rat aorta rings; 20 nM,stimulated
same,capacity to induce vasodilatation,isolated rat aorta rings; FIG. 4,has the capacity to induce vasodilatation
same,effect on phenylephrine-induced vasoconstriction,isolated rat aorta rings; increased tPA concentrations (printed 1 nM; FIG. 4 uses 10 nM),stimulated
same,incidence of subsequent symptomatic intracerebral hemorrhage,[5],approximately six
same,patients with symptomatic intracerebral hemorrhage who die,[5],approximately fifty
same,non-cerebral bleeding episodes,[6],5.94%
